Drawing on PMC4066767, “Distinct nucleic acid interaction properties of HIV-1 nucleocapsid protein precursor NCp15 explain reduced viral infectivity”, this text covers Kd for two molecules.

In data set [1] the target is NCp7 (mature nucleocapsid) (HIV-1) (UniProt P12493). The data set can be described thus: fluorescence anisotropy. On the technique in general: Polarisation of emitted light reports the rotation of a fluorescent probe.
For the next data set, the target named is NCp9 (p7 + SP2) (HIV-1) (UniProt P12493). The data set can be described thus: fluorescence anisotropy.
The next data set has as its target NCp15 (p9 + p6) (HIV-1) (UniProt P12493). The data set can be described thus: fluorescence anisotropy.
For the next data set, the target named is NCp15 (p9 + p6) (HIV-1, UniProt P12493 378-500). The data set can be described thus: fluorescence anisotropy salt titration; Kd extrapolated to 1 M NaCl; Zeff 3.8 ± 0.7. As to conditions: protein: recombinant; tags: none (Trx tag removed by TEV); label: 5' FAM; single strand.
In data set [2] the target is NCp7 (mature nucleocapsid) (HIV-1, UniProt P12493 378-432). The data set can be described thus: fluorescence anisotropy salt titration; Kd extrapolated to 1 M NaCl; Zeff 3.0 ± 0.3. The conditions noted are these: protein: recombinant; tags: none (Trx tag removed by TEV); label: 5' FAM; single strand.
A further data set has as its target NCp9 (p7 + SP2) (HIV-1, UniProt P12493 378-448). The data set can be described thus: fluorescence anisotropy salt titration; Kd extrapolated to 1 M NaCl; Zeff 4.3 ± 0.7. The conditions noted are these: protein: recombinant; tags: none (Trx tag removed by TEV); label: 5' FAM; single strand.

As to shortPBS RNA (105 nt), the Kd (commonly the constant that tells how readily two partners part at equilibrium) in data set [1] was 0.231 µM; with NCp9 (p7 + SP2) (HIV-1), 0.24 µM; with NCp15 (p9 + p6) (HIV-1), 0.278 µM.

B1: 40-nt ssDNA (ssDNA)
DNA: ACTGGACCAAATTCTAATGTGTGTGTACGAAGCATAGCGG
Turning to B1, the Kd is 78 µM with NCp15 (p9 + p6), 23 µM in data set [2] and 92 µM with NCp9 (p7 + SP2).
